Assay [1] addresses microtubules (polymerized with GMPCPP, in taxol). The experiment in a line: co-sedimentation.
In assay [2] the target is T1, GST-CERMAD of wild-type Moesin (residues 483–578) (Drosophila melanogaster, UniProt P46150 483-578).
T1 sequence (looked up): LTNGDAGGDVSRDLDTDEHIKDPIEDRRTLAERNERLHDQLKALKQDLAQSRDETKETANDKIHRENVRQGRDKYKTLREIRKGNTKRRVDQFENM
The experiment in a line: pull-down.

Assay [3] addresses microtubules (polymerized with GMPCPP, in taxol). The experiment in a line: co-sedimentation. This is another data set of the same source.

Where a chain is given by its changes, count along the chain named.

This note sets out measurements from publication PMC3718980 (The Journal of Cell Biology, 2013).

One may read the Kd as the equilibrium constant for the complex coming apart. A lower Kd goes with higher affinity. As a reminder, the stoichiometry N is the number of molecules, sites or subunits per partner or assembly.

“Moesin1–559 (Drosophila Moesin with the C-terminal 19 amino acids deleted) (from UniProt P46150 1-559) (domain or fragment)”: the Kd in assay [1] was found to be 1900 nM.

B1: FERM domain of Drosophila Moesin, wild type (domain or fragment, Drosophila melanogaster, UniProt P46150 1-296, looked up)
chain: MSPKALNVRVTTMDAELEFAIQSTTTGKQLFDQVVKTIGLREVWFFGLQYTDSKGDSTWIKLYKKVMNQDVKKENPLQFRFRAKFYPEDVAEELIQDITLRLFYLQVKNAILTDEIYCPPETSVLLASYAVQARHGDHNKTTHTAGFLANDRLLPQRVIDQHKMSKDEWEQSIMTWWQEHRSMLREDAMMEYLKIAQDLEMYGVNYFEIRNKKGTDLWLGVDALGLNIYEQDDRLTPKIGFPWSEIRNISFSEKKFIIKPIDKKAPDFMFFAPRVRINKRILALCMGNHELYMRRR
Take B1: the “stoichiometry N” value in assay [2] was 1.

B2: FERM-K212,213M of Drosophila Moesin (domain or fragment, Drosophila melanogaster, UniProt P46150 1-296, looked up)
chain: B1 chain with K212M, K213M
As to B2, the “stoichiometry N” value in assay [2] was 1. Further, the fold reduction in the apparent Kd against FERM wild type in assay [3] stood at 3.6 fold.
